Results reported in the RNAGym collection of RNA variant scans (doi:10.7554/elife.80360).

B1: CPEB3 Ribozyme (parent)
chain: GGGGGCCACAGCAGAAGCGUUCACGUCGCGGCCCCUGUCAGAUUCUGGUGAAUCUGCGAAUUCUGCUGU

Variants of: B1
Experiment: self-cleavage, relative activity (ratio to wild type); higher = more cleavage; co-transcriptional

Variant	self-cleavage
GGGGGUCACAGCAGAAGCCUUCACGUCGCGGCCCCUGUCAGAUUCUGGUGAAUCUGCGAAUUCUGCUGU [C6U G19C]	0.124
GGGGGUCACAGCAGAAGCAUUCACGUCGCGGCCCCUGUCAGAUUCUGGUGAAUCUGCGAAUUCUGCUGU [C6U G19A]	0.117
GGGGGUCACAGCAGAAGCGUUCACGUCGCGGCCCCUGUCAGAUUCUGGUGAAUCUGCGAUUUCUGCUGU [C6U A60U]	0.401
GGGGGUCACAGCAGAAGCGUUCACGUCGCGGCCCCUGUCAGAUUCUGGUGAAUCUGCGAGUUCUGCUGU [C6U A60G]	0.85
GGGGGUCACAGCAGAAGCGUUCACGUCGCGGCCCCUGUCAGAUUCUGGUGAAUCUGCGACUUCUGCUGU [C6U A60C]	0.318
GGGGGUCACAGCAGAAGCGUUCACGUCGGGGCCCCUGUCAGAUUCUGGUGAAUCUGCGAAUUCUGCUGU [C6U C29G]	0.259
GGGGGUCACAGCAGAAGCGUUCACGUCGCGGCCUCUGUCAGAUUCUGGUGAAUCUGCGAAUUCUGCUGU [C6U C34U]	0.944
GGGGGUCACAGCAGAAGCGUUCACGUCGCGGCCACUGUCAGAUUCUGGUGAAUCUGCGAAUUCUGCUGU [C6U C34A]	0.426
GGGGGUCACAGCAGAAGCGUUCACCUCGCGGCCCCUGUCAGAUUCUGGUGAAUCUGCGAAUUCUGCUGU [C6U G25C]	0.13
GGGGGUCACAGCAGAAGCGUUCACGUCGCGGCUCCUGUCAGAUUCUGGUGAAUCUGCGAAUUCUGCUGU [C6U C33U]	0.863
GGGGGUCACAGCAGAAGCGUUCACGUCGCGGCCCCUGUCAGUUUCUGGUGAAUCUGCGAAUUCUGCUGU [C6U A42U]	0.957
GGGGGUCACAGCAGAAGCGUUCACGUCGCGGCCCCUGUCAGCUUCUGGUGAAUCUGCGAAUUCUGCUGU [C6U A42C]	0.966
GGGGGUCACAGCAGAAGCGUUCACGUGGCGGCCCCUGUCAGAUUCUGGUGAAUCUGCGAAUUCUGCUGU [C6U C27G]	0.199
GGGGGUCACAGCAGAAGCGUUCACGUAGCGGCCCCUGUCAGAUUCUGGUGAAUCUGCGAAUUCUGCUGU [C6U C27A]	0.369
GGGGGUCACAGCAGAAGCGUUCCCGUCGCGGCCCCUGUCAGAUUCUGGUGAAUCUGCGAAUUCUGCUGU [C6U A23C]	0.953
GGGGGUCACAGCAGAAGCGUUCUCGUCGCGGCCCCUGUCAGAUUCUGGUGAAUCUGCGAAUUCUGCUGU [C6U A23U]	0.999
GGGGGUCACAGCAAAAGCGUUCACGUCGCGGCCCCUGUCAGAUUCUGGUGAAUCUGCGAAUUCUGCUGU [C6U G14A]	0.672
GGGGGUCACAGCAGAAGCGUUCACGUCGCGGCCCCUGUCCGAUUCUGGUGAAUCUGCGAAUUCUGCUGU [C6U A40C]	0.506
GGGGGUCACAGCAGAAGCGUUCACGUCGCGGCCCCUGUCUGAUUCUGGUGAAUCUGCGAAUUCUGCUGU [C6U A40U]	0.835
GGGGGUCACAGCAGAAGCGUUGACGUCGCGGCCCCUGUCAGAUUCUGGUGAAUCUGCGAAUUCUGCUGU [C6U C22G]	0.205

Variant	self-cleavage
GGGGGUCACAGCAGAAGCGUUCACGUCGCGGCCCCUGUCAGAUUCUGGUGAAUCUGCGGAUUCUGCUGU [C6U A59G]	0.961
GGGGGUCACAGCAGAAGCGUUCACGUCGCGGCCCCUGUCAGAUUCUGGUGAAUCUGCGUAUUCUGCUGU [C6U A59U]	0.733
GGGGGUCACAGCAGAAGCGUUCACGUCGCGGCCCCUGUCAGAUUCUGGUGAAUCUGCGCAUUCUGCUGU [C6U A59C]	0.586
GGGGGUCACAGCAGAAGCGUUCAAGUCGCGGCCCCUGUCAGAUUCUGGUGAAUCUGCGAAUUCUGCUGU [C6U C24A]	0.582
GGGGGUCACAGCAGAAGCGUUCAUGUCGCGGCCCCUGUCAGAUUCUGGUGAAUCUGCGAAUUCUGCUGU [C6U C24U]	0.709
GGGGGUCACAGCAGACGCGUUCACGUCGCGGCCCCUGUCAGAUUCUGGUGAAUCUGCGAAUUCUGCUGU [C6U A16C]	0.12
GGGGGUCACAGCAGAUGCGUUCACGUCGCGGCCCCUGUCAGAUUCUGGUGAAUCUGCGAAUUCUGCUGU [C6U A16U]	0.841
GGGGGUCACAGCAGAGGCGUUCACGUCGCGGCCCCUGUCAGAUUCUGGUGAAUCUGCGAAUUCUGCUGU [C6U A16G]	0.986
GGGGGUCACAGCAGAAGCGUUCACGUCGCGGCCCCUGUCAGAUUCUGGUGAAUCUGAGAAUUCUGCUGU [C6U C57A]	0.362
GGGGGUCACAGCAGAAGCGUUCACGUCGCGGCCCCUGUCAGAUUCUGGUGAAUCUGGGAAUUCUGCUGU [C6U C57G]	0.266
GGGGGUCACAGCAGAAGCGUUCACGUCGCGGCCCCUGUCAGAUUCUGGUGAAUCUGUGAAUUCUGCUGU [C6U C57U]	0.363
GGGGGUCACACCAGAAGCGUUCACGUCGCGGCCCCUGUCAGAUUCUGGUGAAUCUGCGAAUUCUGCUGU [C6U G11C]	0.828
GGGGGUCACAUCAGAAGCGUUCACGUCGCGGCCCCUGUCAGAUUCUGGUGAAUCUGCGAAUUCUGCUGU [C6U G11U]	0.876
GGGGGUCACAGCAGAAGCGUUCACGUCGCGGCCCCUGUCAGAUUCUGGUGAAUCUGCGAAUUCUGGUGU [C6U C66G]	0.939
GGGGGUCACAGCAGAAGCGUUCACGUCGCGGCCCCUGUCAGAUUCUGGUGAAUCUGCGAAUUCUGAUGU [C6U C66A]	0.881
GGGGGUCACAGCAGAAGCGUUCACGUCGCGGCCCCUGUCAGAUUCUGGUGAAUCUGCGAAUUCUGUUGU [C6U C66U]	0.991
GGGGGUCACAGCAGAAGCGUUCACGUCCCGGCCCCUGUCAGAUUCUGGUGAAUCUGCGAAUUCUGCUGU [C6U G28C]	0.0878
GGGGGUCACAGCAGAAGCGUUCACGUCACGGCCCCUGUCAGAUUCUGGUGAAUCUGCGAAUUCUGCUGU [C6U G28A]	0.0973
GGGGGUAACAGCAGAAGCGUUCACGUCGCGGCCCCUGUCAGAUUCUGGUGAAUCUGCGAAUUCUGCUGU [C6U C7A]	0.254
